{"source": "patent US20040265314A1", "about": "(Pfizer, published 2004)", "proteins": {"B1": {"name": "human CLCA1 (Calcium Activated Chloride Channel 1) (other)", "chain": "NSLIQLNNNGYEGIVVAIDPNVPEDETLIQQIKDMVTQASLYLFEATGKRFYFKNVAILIPETWKTKADYVRPKLETYKNADVLVAESTPPGNDEPYTEQMGNCGEKGERIHLTPDFIAGKKLAEYGPQGRAFVHEWAHLRWGVFDEYNNDEKFYLSNGRIQAVRCSAGITGTNVVKKCQGGSCYTKRCTFNKVTGLYEKGCEFVLQSRQTEKASIMFAQHVDSIVEFCTEQNHNKEAPNKQNQKCNLRSTWEVIRDSEDFKKTTPMTTQPPNPTFSLLQIGQRIVCLVLDKSGSMATGNRLNRLNQAGQLFLLQTVELGSWVGMVTFDSAAHVQSELIQINSGSDRDTLAKRLPAAASGGTSICSGLRSAFTVIRKKYPTDGSEIVLLTDGEDNTISGCFNEVKQSGAIIHTVALGPSAAQELEELSKMTGGLQTYASDQVQNNGLIDAFGALSSGNGAVSQRSIQLESKGLTLQNSQWMNGTVIVDSTVGKDTLFLITWTTQPPQILLWDPSGQKQGGFVVDKNTKMAYLQIPGIAKVGTWKYSLQASSQTLTLTVTSRASNATLPPITVTSKTNKDTSKFPSPLVVYANIRQGASPILRASVTALIESVNGKTVTLELLDNGAGADATKDDGVYSRYFTTYDTNGRYSVKVRALGGVNAARRRVIPQQSGALYIPGWIENDEIQWNPPRPEINKDDVQHKQVCFSRTSSGGSFVASDVPNAPIPDLFPPGQITDLKAEIHGGSLINLTWTAPGDDYDHGTAHKYIIRISTSILDLRDKFNESLQVNTTALIPKEANSEEVFLFKPENITFENGTDLFIAIQAVDKVDLKSEISNIARVSLFIPPQTPPETPSPDETSAPCPNIHINSTIPGIHILKIMWKWIGELQLSIA", "notes": "914 amino acids; also called hCLCA1; soluble CLCA1"}}, "biological_target": "the molecule itself", "assay": "Western blot of conditioned media, reducing against non-reducing SDS-PAGE", "description": "Samples were combined with 2× SDS sample buffer with β-mercapatoethanol and boiled for 2 minutes. After boiling, the samples were loaded onto either a 4-20% gradient gel or 6% SDS gel. Gels were then transferred to nitrocellulose using an Invitrogen blotting apparatus (Invitrogen, Carlsbad, Calif.) and transfer buffer as provided by Invitrogen (Invitrogen, Carlsbad, Calif.). Gels were transferred for 2 hours at 30V under constant current. Nitrocellulose blots were blocked in 5% non-fat dry milk for 1 hour at room temperature. The blots were incubated with 0.5 μg/mL peptide polyclonal antibody overnight at 4° C. After incubation with the primary antibody, the blots were washed 3 times for 10 minutes each in washing buffer (1% Triton×100 (v/v), 0.1% SDS (w/v) in PBS, calcium and magnesium free) and then incubated for 30 minutes with mouse anti rabbit IgG conjugated to horseradish peroxidase (Santa Cruz Biotech, Santa Cruz, Calif.). The blots were washed 3 times for 10 minutes each in wash buffer and developed with the chemiluminescence reagent, ECL. (Amersham, Piscataway, N.J.). The blots were exposed to Kodak film and developed using a film developer.\nThe conditioned media from both COS and HEK293 transfectants were analyzed by Western blot under reducing and non-reducing conditions to assess whether CLCA1 exists as a multimer in the secreted milieu. […]"}
{"protein": "B1", "values": [{"measurement": "binding result", "value": "binds"}]}
